Measured values from PMC2099194 (The Journal of Cell Biology, 2007).
Read-outs that look alike come from different tables or passages of the source.

What was measured:
[1] = target: His-ABD-IgFLNa1-8+24 (human) (UniProt P21333); experiment: rotary-shadowing electron microscopy
[2] = target: His-ABD-IgFLNa16-24 (human) (UniProt P21333); experiment: rotary-shadowing electron microscopy
[3] = target: FLAG-tagged full-length FLNa (human) (UniProt P21333); experiment: rotary-shadowing electron microscopy
[4] = target: His-ABD-IgFLNa8-15+24 (human) (UniProt P21333); experiment: rotary-shadowing electron microscopy
His-IgFLNa1-8+24 (human) = experiment: rotary-shadowing electron microscopy
[5] = target: F-actin (rabbit skeletal muscle actin) (rabbit) (UniProt P68135); experiment: co-sedimentation
[6] = target: F-actin (rabbit skeletal muscle actin) (rabbit) (UniProt P68135); experiment: co-sedimentation; remark: listed apart in the source
[7] = target: full-length FLNa lacking hinge 1 (human) (UniProt P21333); experiment: rotary-shadowing electron microscopy
His-IgFLNa16-24 (human) = experiment: rotary-shadowing electron microscopy
[8] = target: His-IgFLNa8-15+24 (human); experiment: rotary-shadowing electron microscopy
[9] = target: recombinant human filamin A (FLNa), full length (human) (UniProt P21333); experiment: rotary-shadowing electron microscopy
[10] = target: full-length FLNa lacking hinge 2 (human) (UniProt P21333); experiment: rotary-shadowing electron microscopy
[11] = target: FLAG-tagged full-length FLNa (human, UniProt P21333 1-2647); experiment: pull-down

His-ABD-IgFLNa1-8+24 (from UniProt P21333 1-278) (domain or fragment)
stoichiometry N [1]: 2

His-ABD-IgFLNa16-24 (from UniProt P21333 1-278) (domain or fragment)
stoichiometry N [2]: 2

FLAG-tagged full-length FLNa, P21333 1-2647
stoichiometry N [3]: 2

His-ABD-IgFLNa8-15+24 (from UniProt P21333 1-278) (domain or fragment)
stoichiometry N [4]: 2

His-IgFLNa1-8+24 (domain or fragment)
stoichiometry N (His-IgFLNa1-8+24 (human)): 2

FLNa ABD (F-actin binding domain alone) (domain or fragment)
percent bound of total input [5]: 11.7% | Kd [6]: 17 µM | percent bound of total input [6]: 8.7% | stoichiometry N (ratio to actin, mol/mol) [6]: 1

full-length FLNa lacking hinge 1 (from UniProt P21333 1-2647) (natural protein)
stoichiometry N [7]: 2

ABD-IgFLNa1-4 (domain or fragment)
Kd [6]: 7.5 µM | stoichiometry N (ratio to actin, mol/mol) [6]: 1.7

ABD-IgFLNa1-23 (domain or fragment)
Kd [6]: 0.31 µM | stoichiometry N (ratio to actin, mol/mol) [6]: 12

FLAG-ABD-IgFLNa1-8 (domain or fragment)
Kd [6]: 7.1 µM | stoichiometry N (ratio to actin, mol/mol) [6]: 1.8

ABD-IgFLNa1-2 (domain or fragment)
Kd [6]: 11.8 µM | stoichiometry N (ratio to actin, mol/mol) [6]: 1.3

His-IgFLNa16-24 (domain or fragment)
stoichiometry N (His-IgFLNa16-24 (human)): 2

His-IgFLNa8-15+24 (domain or fragment)
stoichiometry N [8]: 2

ABD-IgFLNa1-15 (domain or fragment)
Kd [6]: 0.67 µM | stoichiometry N (ratio to actin, mol/mol) [6]: 5.4

recombinant human filamin A (FLNa), full length, P21333 1-2647
stoichiometry N [9]: 2 | percent bound of total input [5]: 83.6% | KD of the high avidity site (apparent, two independent site model) [6]: 0.017 µM | KD of the low affinity site (apparent, two independent site model) [6]: 0.22 µM | percent bound of total input [6]: 56.3%

full-length FLNa lacking hinge 2 (from UniProt P21333 1-2647) (natural protein)
stoichiometry N [10]: 2

B1: full-length human recombinant FilGAP (natural protein, UniProt Q8N264 1-748, looked up)
chain: MEENNDSTENPQQGQGRQNAIKCGWLRKQGGFVKTWHTRWFVLKGDQLYYFKDEDETKPLGTIFLPGNKVSEHPCNEENPGKFLFEVVPGGDRDRMTANHESYLLMASTQNDMEDWVKSIRRVIWGPFGGGIFGQKLEDTVRYEKRYGNRLAPMLVEQCVDFIRQRGLKEEGLFRLPGQANLVKELQDAFDCGEKPSFDSNTDVHTVASLLKLYLRELPEPVIPYAKYEDFLSCAKLLSKEEEAGVKELAKQVKSLPVVNYNLLKYICRFLDEVQSYSGVNKMSVQNLATVFGPNILRPKVEDPLTIMEGTVVVQQLMSVMISKHDCLFPKDAELQSKPQDGVSNNNEIQKKATMGQLQNKENNNTKDSPSRQCSWDKSESPQRSSMNNGSPTALSGSKTNSPKNSVHKLDVSRSPPLMVKKNPAFNKGSGIVTNGSFSSSNAEGLEKTQTTPNGSLQARRSSSLKVSGTKMGTHSVQNGTVRMGILNSDTLGNPTNVRNMSWLPNGYVTLRDNKQKEQAGELGQHNRLSTYDNVHQQFSMMNLDDKQSIDSATWSTSSCEISLPENSNSCRSSTTTCPEQDFFGGNFEDPVLDGPPQDDLSHPRDYESKSDHRSVGGRSSRATSSSDNSETFVGNSSSNHSALHSLVSSLKQEMTKQKIEYESRIKSLEQRNLTLETEMMSLHDELDQERKKFTMIEIKMRNAERAKEDAEKRNDMLQKEMEQFFSTFGELTVEPRRTERGNTIWIQ
binding result [11]: binds
